These results are taken from IntAct's records for PubMed 12679340.

This experiment concerns the target otc_yeast ARG3 (UniProt P05150).

Chain of Arginase (Saccharomyces cerevisiae), P00812 C321R;C326T (P00812 whole entry C321R/C326T): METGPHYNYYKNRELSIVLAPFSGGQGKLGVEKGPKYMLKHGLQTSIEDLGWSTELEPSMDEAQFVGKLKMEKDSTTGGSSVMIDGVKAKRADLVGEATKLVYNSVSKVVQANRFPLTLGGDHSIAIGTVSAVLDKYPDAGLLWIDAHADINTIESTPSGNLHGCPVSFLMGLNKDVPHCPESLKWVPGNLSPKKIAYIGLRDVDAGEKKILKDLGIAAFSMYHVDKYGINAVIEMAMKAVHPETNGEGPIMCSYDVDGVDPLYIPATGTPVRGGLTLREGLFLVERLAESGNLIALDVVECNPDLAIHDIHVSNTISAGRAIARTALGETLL
Chain of otc_yeast ARG3 (P05150 whole entry): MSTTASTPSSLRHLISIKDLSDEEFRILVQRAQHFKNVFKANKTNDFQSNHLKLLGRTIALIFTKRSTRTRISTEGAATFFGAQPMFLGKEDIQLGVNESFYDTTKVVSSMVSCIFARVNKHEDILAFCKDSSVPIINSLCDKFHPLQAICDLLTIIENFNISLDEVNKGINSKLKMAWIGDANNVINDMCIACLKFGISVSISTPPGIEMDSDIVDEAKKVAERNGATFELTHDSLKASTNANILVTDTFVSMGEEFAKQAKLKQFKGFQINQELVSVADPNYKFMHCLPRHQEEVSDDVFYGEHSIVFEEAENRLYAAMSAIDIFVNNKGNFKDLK

For “Arginase (Saccharomyces cerevisiae), P00812 C321R;C326T”, the “effect of a mutation on the interaction” value is reported as “decreasing interaction”.
